In publication PMC12207588:

Test system: P02768
Test: SEC; BioSep SEC-s2000 column, PBS pH 7.4, 1 mL/min; share of monomer, dimer and trimer from the UV trace at 280 nm

Substance	percent dimer and trimer together (SEC UV trace at 280 nm)	percent HSA dimer (SEC UV trace at 280 nm)	percent HSA trimer (SEC UV trace at 280 nm)
DFO*malHSA (HSA1 conjugated with DFO*maleimide at Cys34)	the other 5% of the UV trace corresponds to the albumin dimer and trimer	–	–
Human serum albumin, lyophilized powder from human serum, A1693 (HSA2)	–	10.7% (6.7 min)	–
Human serum albumin, lyophilized powder from human serum, A3782 (HSA3)	–	3.4% (7.3 min)	–
Human serum albumin, pharmaceutical solution Albunorm (HSA1)	–	1.1% (7.1 min)	2.9% (5.6 min)
Recombinant human serum albumin, lyophilized, A9731 (HSA4)	–	10.2% (7.2 min)	–
